Target: T1, micro-array bound histone H3 peptides (Homo sapiens, UniProt P68431)
T1 construct: 48 discrete histone H3 peptides containing a wide range of histone modifications at defined residues; made in house; host or cells: peptides by chemical solid phase synthesis
Assay: Histone peptide microarray-based methylation assay (SET 7/9)
Format: biochemical
Conditions: 12 hrs, 30° C. methylation buffer; 100 uM, 70 ul SET 7/9; FIG. 15
Method: FIG. 15. SET 7/9 dependent methylation of micro-array bound histone peptides. Microarray slides containing duplicate arrays (dashed boxes) of 48 discrete histone H3 peptides containing a wide range of histone modifications at defined residues. These were incubated with the methyl-transferase enzyme SET7/9 (Bottom panel) or a buffer containing no enzyme (Control, top panel), and subsequently probed with an anti-H3K4me1 antibody.
Methylation assays were performed using the recombinant human histone methyl-transferase SET 7/9 under standard methylation conditions. Assays on the microarrays of the invention were performed under coverslips, enabling small volumes of reagent usage per assay (70 μl). Enzyme-mediated methylation is detected by a histone methyl specific antibody (i.e. anti-histone H3 mono-methyl K4) by standard Western blotting conditions.
Importantly, reproducible patterns of modification are generated on the different peptides (the dashed boxes contain duplicate arrays of 48 epitope spots) allowing users to analyse the effects of defined modifications on methyl transfer by the enzyme.

B1: SET 7/9: recombinant human histone methyl-transferase SET 7/9 (protein)
chain: MDSDDEMVEEAVEGHLDDDGLPHGFCTVTYSSTDRFEGNFVHGEKNGRGKFFFFDGSTLEGYYVDDALQGQGVYTYEDGGVLQGTYVDGELNGPAQEYDTDGRLIFKGQYKDNIRHGVCWIYYPDGGSLVGEVNEDGEMTGEKIAYVYPDERTALYGKFIDGEMIEGKLATLMSTEEGRPHFELMPGNSVYHFDKSTSSCISTNALLPDPYESERVYVAESLISSAGEGLFSKVAVGPNTVMSFYNGVRITHQEVDSRDWALNGNTLSLDEETVIDVPEPYNHVSKYCASLGHKANHSFTPNCIYDMFVHPRFGPIKCIRTLRAVEADEELTVAYGYDHSPPGKSGPEAPEWYQVELKAFQATQQK
enzyme-mediated methylation of array peptides detected by anti-histone H3 mono-methyl K4 antibody: specific enzymatic methyl transferase activity occurs

— patent US20090149343A1, “HISTONES” (priority 2006, published 2009)
